Experimental data: patent US11661461B2, “Phospho-Rab antibodies, assays and methods of use thereof” (Denali Therapeutics Inc., priority 2017, dated 2023)
Substitutions are numbered along the chain they refer to. “Also recorded” adds a separate entry of the source.

B1: Clone 86-9: anti-phosphorylated (pT72) Rab8a rabbit monoclonal antibody; VH SEQ ID NO:81, VL SEQ ID NO:85 (antibody, V domains shown)
VH: METGLRWLLLVAVLKGVQCQSVEESGGRLVTPGTPLTLTCTVSGFSLSSYYITWVRQAPGKGLEWLGIMNAGTTVHYANWVKGRFAISKTSTTVDLKITSPTTEDTATYFCARARNSVWMDIWGPGTLVTVSL
VL: MDTRAPTQLLGLLLLWLPGATLAAVLTQTPSPVSGAVGGSVTVNCQSDKSVYRDNLAWYQQKPGQPPKLLIYKASTLASGVPSRFRGSGAGTQFTLTISDVQCDDAATYFCAGGYSSDSDTAFGGGTEVVVK
B2: Clone 71-3: anti-phosphorylated (pT72) Rab8a rabbit monoclonal antibody; VH SEQ ID NO:71, VL SEQ ID NO:75 (antibody, V domains shown)
VH: METGLRWLLLVAVLKGVQCQSVEESGGRLVTPGTPLTLTCTASGFSLNVYYMTWVRQAPGKGLDWIGIINTDITVHYANWARGRFTISKTSTTVDLKITSPTTEDTATYFCARARNSAWMDIWGPGTLVTVSL
VL: MDTRAPTQLLGLLLLWLPGATFAAVLTQTPSPVSAAVGGTVTINCQSDWSVYNNNLAWYQHKPGQPPKLLIYKTSTLASGVPSRFRGSGSGTQFTLTISDVQCDDTATYYCAGGYYRDSDTAFGGGTEVVVK
B3: Clone 81-11: anti-phosphorylated (pT73) Rab10 rabbit monoclonal antibody; VH SEQ ID NO:21, VL SEQ ID NO:25 (antibody, V domains shown)
VH: METGLRWLLLVAVLKGVQCQSVEESGGRLVTPGTPLTLTCTVSGFSLSSYAMSWVRQAPGKGLEYIGLFNDVGIAYYANWAKGRFTFSKTSTTVDLKITSPTTEDTATYFCARVGGTTRVYGMDLWGPGTLVTVSS
VL: MDTRAPTQLLGLLLLWLPGATFAAVLTQTPSPVSAAVGGTVSISCQSSKSVRHNNYLSWYQQKPGQRPKLLIYGASTLASGVPSRFSGSGSGTEFTLTISDVQCDDAATYYCAGGYSGGGDDAFGGGTEVVVE
B4: Clone 20: anti-phosphorylated (pT72) Rab8a rabbit monoclonal antibody; VH SEQ ID NO:63, VL SEQ ID NO:66 (antibody, V domains shown)
VH: METGLRWLLLVAVLKGVQCQSVEESGGRLVTPGTPLTLTCTVSGFSLSSYAMGWVRQAPGEGLEYFGIINTGGSAYYTNWAKGRFTISRTSTTVHLKITSPTTEDTATYFCARIAGDTRYYGMDPWGPGTLVTVSS
VL: B3 VL with H53N, S58A, R67P, S87K, E94Q, S117D, G120S, E133K
B5: Clone 19-4: anti-phosphorylated (pT73) Rab10 rabbit monoclonal antibody; VH SEQ ID NO:17, VL SEQ ID NO:18 (antibody, V domains shown)
VH: METGLRWLLLVAVLKGVQCQSVEESGGRLVTPGTPLTLTCTVSGFSLSSYAMVWVRQAPGKGLEYIGLISRSGVTYYATWAKGRFTISKASTTVDLKIASPTTGDTATYFCVRDYDSAGWSGFTIWGPGTLVTVSA
VL: MDTRAPTQLLGLLLLWLPGAICDPVMTQTPSSTSAAVGGTVTINCQSSQSVYGNNYLSWYQQKPGQPPKLLIYKASTLASGVPSRFVGSGSGTQFTLTISDLECDDAATYYCAGAASDTRFFGGGTELVVN

How the values were obtained:
LRRK2 = assay: 7 days of dosing in cynomolgus monkeys, pT73-Rab10 and pS935-LRRK2 western blot; format: in vivo, cynomolgus monkey; details: 45 mg/kg daily
Procedure: Phosphorylated Rab10 was also tested in cynomolgus monkey lung and kidney tissue following 7 days of dosing with a LRRK2 inhibitor. Cynomolgus monkeys were dosed daily with the LRRK2 Inhibitor C at a dose of 45 mg/kg. […] Signals from dosed groups were normalized to vehicle control group. Data were presented as mean with SEM.

[1] = target: T1, endogenous phosphorylated Rab8a in human PBMC (Homo sapiens, UniProt P61006); assay: Western blot of human PBMC with anti-pT72-Rab8a antibodies; format: binding; details: for detection of endogenous phosphorylated Rab8a signals in human PBMC by western blot: antibody at 1 ug/ml; for Western blot Human PBMC Ratio of DMSO/LRRK2 inhibitor A (mean ± SEM): band intensity normalized with Actin control for each of DMSO and LRRK2 inhibitor A, antibody 1 ug/ml
T1 construct: Strong endogenous phosphorylated Rab10 or phosphorylated Rab8a in human PBMC; host or cells: human PBMC
T1 sequence (P61006 1-207): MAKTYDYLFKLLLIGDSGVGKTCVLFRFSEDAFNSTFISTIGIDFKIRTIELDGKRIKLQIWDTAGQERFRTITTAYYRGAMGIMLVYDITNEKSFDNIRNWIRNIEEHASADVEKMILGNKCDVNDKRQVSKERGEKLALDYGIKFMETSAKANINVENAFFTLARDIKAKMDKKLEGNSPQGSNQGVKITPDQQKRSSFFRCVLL

[2] = target: T2, phosphorylated Rab10 in lysates of HEK cells overexpressing LRRK2 (Homo sapiens, UniProt P61026); assay: Sandwich ELISA (diagnostic), HEK cells overexpressing LRRK2; format: binding; details: for Sandwich ELISA (diagnostic), Ratio: DMSO / LRRK2 inhibitor A RLU; for Sandwich ELISA (diagnostic) HEK cells overexpressing LRRK2, DMSO (RLU mean ± SD): DMSO treated cells; for Sandwich ELISA (diagnostic) HEK cells overexpressing LRRK2, LRRK2 inhibitor A (RLU mean ± SD): cells treated with LRRK2 inhibitor A
T2 construct: expressed in transfected cells; host or cells: HEK cells overexpressing LRRK2
T2 sequence (P61026 1-200): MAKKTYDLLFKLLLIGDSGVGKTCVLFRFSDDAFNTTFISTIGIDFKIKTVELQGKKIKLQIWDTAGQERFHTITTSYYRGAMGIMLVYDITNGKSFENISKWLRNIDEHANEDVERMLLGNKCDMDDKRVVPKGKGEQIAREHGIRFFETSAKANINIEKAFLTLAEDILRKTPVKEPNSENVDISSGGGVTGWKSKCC
Procedure: Sandwich ELISA (Diagnostic) with Anti-Phospho-Rab10 Antibody as the Capture Antibody:
ELISA plates were prepared by coating white Nunc MaxiSorp 384 well plates (Thermo Fisher #460372/Sigma #P6491) with capture antibody for 1 hour at room temperature on a shaking platform. The capture antibody was purified anti-phospho-Rab10 clone 19-4 diluted to 1 ug/mL in carbonate-bicarbonate buffer, and 15 uL/well of coating solution was added to the plate before incubation. Plates were then washed 3× with TBST on a BioTek plate washer. For all subsequent blocking/incubation steps, Pierce Starting Block T20 (TBS) was used (Thermo Fisher #37543). Plates were blocked […] in this solution using 80 uL/well and washed 3× as before. Afterwards samples of cell lysates were added (neat with no dilution) using 30 uL/well and incubated 1 hour at room temperature on a shaking platform. After another 3× wash detection antibody (Creative Diagnostics DCABH 13141, or Abcam, ab104859, 2 ug/mL) was added using 30 uL/well. After 60 minute incubation at room temperature and washing 3×, the secondary anti-species conjugate was added (anti-rabbit HRP antibody (Jackson ImmunoResearch 111-035-144) diluted 1:20000 in assay diluent) at 30 uL/well. After a 60 minute incubation, plates were washed 3× as before. The HRP substrate (Supersignal ELISA Femto HRP substrate—Thermo Fisher #37075) was prepared during this time by mixing both components and equilibrating to room temperature. 50 uL/well of substrate was added to plates, which then were covered and briefly incubated for 1-2 minutes on a shaker platform. Afterwards plates were read on the Synergy plate reader to measure relative light units (RLU).
Sandwich ELISA (Diagnostic) with Anti-Rab10 (Total) Antibody as the Capture Antibody:
ELISA plates were prepared by coating white Nunc MaxiSorp 384 well plates (Thermo Fisher #460372/Sigma # P6491) with capture antibody overnight at 4° C. on a shaking platform. The capture antibodies (anti-Rab10 antibody from either Creative Diagnostics, DCABH-13141, or Abcam, ab104859) were diluted to […] (or 1:100 if the concentration not known) in carbonate-bicarbonate buffer, and 15 uL/well of coating solution was added to the plate before incubation. After this plates were washed 3× with TBST on a BioTek plate washer. For all subsequent blocking/incubation steps, Pierce Starting Block (TBS) (no Tween added) was used (Thermo Fisher #37542). Plates were blocked for 1 hour at room temperature in this solution using 80 uL/well and washed 3× as before. Afterwards samples were added (with lysates being diluted 1:20 in the assay diluent) using 30 uL/well and incubated 2 hours at room temperature on a shaking platform. After another 3× wash detection antibodies were added (diluted to 1 ug/mL for purified antibodies or 1:2 for supernatants) using 30 uL/well. After 90 minute incubation at room temperature and washing 3× the secondary anti-species conjugate was added (anti-rabbit HRP antibody (Jackson ImmunoResearch 111-035-144) diluted 1:20000 in assay diluent) at 30 uL/well. After a 45 minute incubation plates were washed 3× as before. The HRP substrate (Supersignal ELISA Femto HRP substrate—Thermo Fisher #37075) was prepared during this time by mixing both components and equilibrating to room temperature. 50 uL/well of substrate was added to plates, which then were covered and briefly incubated for 1-2 minutes on a shaker platform. Afterwards plates were read on the Synergy plate reader to measure relative light units (RLU).

[3] = target: T3, endogenous phosphorylated Rab10 in human PBMC (Homo sapiens, UniProt P61026); assay: Western blot of human PBMC with anti-pT73-Rab10 antibodies; format: binding; details: for detection of endogenous phosphorylated Rab10 signals in human PBMC by western blot: antibody at 1 ug/ml; for Western blot Human PBMC Ratio of DMSO/LRRK2 inhibitor A (mean ± SEM): band intensity normalized with Actin control for each of DMSO and LRRK2 inhibitor A, antibody 1 ug/ml
T3 construct: Strong endogenous phosphorylated Rab10 or phosphorylated Rab8a in human PBMC; host or cells: human PBMC
T3 sequence (P61026 1-200): T2 sequence (P61026 1-200)

pT73-Rab10 = target: T4, pT73-Rab10 (Homo sapiens, UniProt P61026); assay: Phospho-Rab10 MSD assay (clone 19-4 as capture antibody); format: binding; details: anti-total Rab10 antibody for detection
T4 construct: Strong endogenous phosphorylated Rab10 or phosphorylated Rab8a in human PBMC; host or cells: human PBMC
T4 sequence (P61026 1-200): T2 sequence (P61026 1-200)

[4] = normalized to actin and vehicle control group, mean with SEM, N = 4
[5] = normalized to vinculin and vehicle control group, mean with SEM, N = 4

Row | Molecule | detection of endogenous phosphorylated Rab8a signals in human PBMC by western blot [1] | Western blot Human PBMC Ratio of DMSO/LRRK2 inhibitor A (mean ± SEM) [1] | Sandwich ELISA (diagnostic), Ratio [2] | Sandwich ELISA (diagnostic) HEK cells overexpressing LRRK2, DMSO (RLU mean ± SD) [2] | Sandwich ELISA (diagnostic) HEK cells overexpressing LRRK2, LRRK2 inhibitor A (RLU mean ± SD) [2] | Western blot Human PBMC Ratio of DMSO/LRRK2 inhibitor A (mean ± SEM) [3] | other results
1 | Cc1nn(C(C)(C)c2ncn(C)n2)cc1Nc1ncc(C(F)(F)F)c(C2CC2)n1 [LRRK2 Inhibitor C, 4-cyclopropyl-N-(3-methyl-1-(2-(1-methyl-1H-1,2,4-triazol-3-yl)propan-2-yl)-1H-pyrazol-4-yl)-5-(trifluoromethyl)pyrimidin-2-amine] | – | – | – | – | – | – | dephosphorylation of pT73-Rab10 and pS935-LRRK2 (LRRK2; lung and kidney): significant dephosphorylation; pT73-Rab10, Kidney (LRRK2; [4]): 0.547 ± 0.125; pT73-Rab10, Lung (LRRK2; [4]): 0.189 ± 0.0562; pS935-LRRK2, Kidney (LRRK2; [5]): 0.0563 ± 0.0147; pS935-LRRK2, Lung (LRRK2; [5]): 0.102 ± 0.0215
2 | B1 | detected endogenous phosphorylated Rab signals | 2.26 ± 0.12 | – | – | – | – | –
3 | B2 | detected endogenous phosphorylated Rab signals | 2.61 ± 0.42 | – | – | – | – | –
4 | B3 | – | – | 33.74 | 473585 ± 44210 RLU | 14037 ± 1627 RLU | 2.48 ± 0.31 | detection of endogenous phosphorylated Rab10 signals in human PBMC by western blot [3]: detected endogenous phosphorylated Rab signals
5 | B4 | – | 3.50 ± 0.52 | – | – | – | – | detection of endogenous phosphorylated Rab8a signals in human PBMC by western blot ([1]; listed as 20): detected endogenous phosphorylated Rab signals
6 | B5 | – | – | 37.40 | 80524 ± 7835 RLU | 2153 ± 774 RLU | 2.95 ± 0.68 | pRab10 signals in phospho-Rab10 MSD assay (pT73-Rab10; human A549 cells, listed as 19-4): showed pRab10 signals; pRab10 signals in phospho-Rab10 MSD assay (pT73-Rab10; human PBMCs): showed pRab10 signals; detection of endogenous phosphorylated Rab10 signals in human PBMC by western blot ([3]; listed as 19-4): detected endogenous phosphorylated Rab signals; also recorded: Detection of phosphorylated Rab10
